Laboratory results reported in a protein production outcome set (Wang et al. 2014).

Test: label from the status in PepcDB records

Sequence	protein production
MNEISVVLPAYNEEENIQKLVKRWQQLCKDLKYKYELSLNIFVIDDGSKDKTEVIGRELERKYDNFYLIKHDKNKGLGEAINTGIKYVMEKRSDSKYVCIMDCDNTQDPRYVFSMIEKMEKTDVVIASRYQKGSCVKGVPFFRLTASYGARFVYTIFLGVKNVRDYTCGYRLYRTSALKTAFKVFGESFIEESGFTCMVELLYKLNICGAVFKEVPFTLRYDFKGGVSKMKVLITAINSVKLTLRLKKIRKGVEPVLEDLEHHHHHH	failed
MEQIILDIIEFLKQFSYFGVVLALTFEFIPAEVVLPMVGYWVYEGDMNFWLAVLAGTLGGTTGPLTLYALGYYGGRPLLIKYGKYFFIKEEQIQKADDFFEKYGPVVAFVGRFVPGVRTLISVPCGKAKMNIWKFSIYTFVAMFPLTTLYVYCEMKLGPHWEKAADVVGQYMLPILVVVVIIVGGILIYKFMKKRNRSESI	failed
MTEMHRLLQRQLKKFGFTADGLPQNLESWTQFIAHINKTYYENDQDRYLLERSIDISSKEMRDINAKLEYAQDIAQIGYWHYDADTDTATWSKGLFKILGLPPSNVALNYSSFLDLVHPNDKAGLKNVVEKALKEKEDYDYELRVRNGDNDYKWYRTIARANPHKNEISGVLMDISKRKIIEEQVHELNNKLVSTARLAGMSEVATSILHNVGNILNSVNVSAIILKKNISKIHYKKLSAIKTMLDENINQLSEYLLQNPKGKLILPYLDALSKTLHEEYEENMKESNSLETNINHIKEIIAMQQSLSGLSNLTEKISIHDVILNAVKSVILDKHQIDVRIEIEPDINEFITDKSKLFQILTNLLANAKDSVLLHEANDSRKVVISIGRTEKNHIMIKINDNGIGIQKDNLDRIFSFGFTTKKNGHGFGLHCSAIYARDLGGTLYAESNGNGKGAQFVLDLPINPKTLSTR	failed
MITRNAPRHALLGLILAGSLGTFVALPAVADNAAPAEQGQTTPALGSNLQTLKELDGKAPARRALNIQTWNTAEGARVLFVESRELPMFDMRLTFAAGSSQDQKSPGIALLTNAMLNEGVKGKDVNAIAQGFEGLGADFSNGSYRDMAVTSLRSLSAADKRDPALKLFSEVVGKPTFPADSLARIKNQLIASFKTQKQNPGAIASKELFNHLYGDHPYAHPSEGDAKSINAITLAQLKAFHAKGYAAGNAVIALVGDLSRDEAQAVAAQVSASLPKGPALAKVADPVEPKAGTTHIEFASNQTHLMLAQLGIDRNDPDYAALTVGNSVLGGGGFGSRLMTEVREKRGLTYGVSSGFTAMQVAGPFMIGLQTRAEMSENTLKLVQDIVRDFLANGPTQKEIDDVKRELTGSFPLTAASNSAIVGQLGAIGFYNLPLTYLEDYMAAAQSVTVEQVKAAMSKHLSADKMVIVTVGPTVEQKPLPAPTDKPTRQPVGVPEH	failed
VRQVEEYIEANWMRPITIEKLTALTGISSRGIFKAFQRSRGYSPMAFAKRVRLQHAHNLLSDGATPTTVTAAALSCGFSNLGHFARDYRDMFGEKPSETLQRARP	not failed
MYELERTVFQELFRRVLDNQYQVTPEERKALVQCDNSIVRRGIFSALTSFSLIYYGLKQFQKHFNASSSLRLRPAIPATLLGLTTGFFYGRTAAPGCLQNLMNVPNSAVAEEVKIIIRELYEQSPSSTTGQTIATRYGFLLDSTTVPMKISDVGFGDNENSDWKEVDTWQSDNSIYQGTVQKRVGPRNSDKRRVIRPNDKVENHIHQDALANSTSSLPSNETDYGFASLPGYSSSQSDSDVLESWDIGNDNQQENTNNEPNVKKESHRRRRRNEFRKSNGQVKSLESDPTEQGTIQTDTKDLLSSRQDTDALWDSSFSGKGSSATAF	failed
MLRSSAAAGKGGRILAAKQVNPTRMELTRLKKKRITAIRGHKLLKDKRDELMRQYLDLVRENMEVRKKVEAGIRSANKNFVIAKAGMSEAALNTALMAPKQEVNLEAGEKNVMSVDIPTFQYKTRTADENDIYSYGFAFTSGDLDGAVKSLADVLPDMIRLAECEKACQLMAAEIEKTRRRVNALEHVIIPETEQSIKYITMKLDENERSTQIRLMKVKDMMLEETHHYSEK	failed
MYTRLLVVSLACLLFGVSAFAQPMAPVPDAPLRNAALRMKDKDYRAVRDELRSVPPSPERTFLDGVAARRLEQWPEASELLGVAAKDLPLLADYALFWQAEALMAATRYDEAEEVLQRLVGTWPDSPTLRKARMLLADAQFARKEYRQALASYIRFIELYPSGTDSVTANLKTALCREGLDDPRRAVQELRAIWLAYPASPVAETAEQELKRLEALGFPAVPLTPDELLKRGTTLYNLGKYERALAVFNTIPLKEQLAGFNDRVALKIGETLLKLRRYKDAARTFSSLIEREPKREIADEARFLLARAQNKAGNDDEAFLGFLKLAETAPTSEWADNALLEAAFVRKFQGRYADQLAVLEKLLTTYPGTKLKPRAMWETAWARYNTGDYRSAAESFRLLTASADYRERALYWHGRSLQRIGEETVARQSFAMLAEEYPFSFYTFTATDPAPQEGAIPLIVHDLRQTISPPAGHERARALIAMGLHDQARSELSIARKNGSSRGKGLLGIARLYLEMNDYSSAAAALRGEQPRRMDGETATTWGLLYPRGFSDSVAAEANRHTIPEELIYGLIKAESGFSPVALSPVGAVGLMQLMPSTAKGMVNGSSPANGISARLTDPTFNVGLGVRHLKDLLKQYNGNVVSAVAAYNAGSRPVDRWRRSLAGLREDEFIENIPYYETREYVKKVLTFAEVYRRLYRPAAPALAFLPQVSAPEPPQPAPTNNAPPTAALASPPETSALTAPVRQQP	failed
MRRFNTSQNKNERNLFNDYIKNEDELYDERDDEGINKEPISLKADVNNNFFPIDQIHSTYFLCNNLNNDNTEKEINEHISFEKIQDHEKEEKKKIFLFNLSDNQKKQIENLKINKIIQNEMYLKKNKILKYIIHIFISDILKEKPNDVYDYASNYFTQPQFKMYILEKLKLRINK	failed
MARGLNRVFLIGALATRPDMRYTPAGLAILDLTLAGQDLLLSDNGGEREVSWYHRVRLLGRQAEMWGDLLDQGQLVFVEGRLEYRQWEREGERRSELQIRADFLDPLDDRGKERAEDSRGQPRLRAALNQVFLMGNLTRDPELRYTPQGTAVARLGLAVNERRQGAEERTHFVEVQAWRDLAEWAAELRKGDGLFVIGRLVNDSWTSSSGERRFQTRVEALRLERPTRGPAQAGGSRSREVQTGGVDIDEGLEDFPPEEELPF	not failed
MGNIIRALVAFIPTDRCQSYVVGDLREMPLDRMVDLSGSQLRRFPLHVCSFTELVKLYLSDNHLHSLPPDLAQLQNLQILALDFNNFKALPQAVCTLKQLCILYLGNNKLCDLPDELSLLQNLRTLWLESNCLTRLPDVVCELSLLKTLHAGSNALRLLPGQLRRLRELRTIWLSGNQLADFPSVLLHMPFLEVIDVDRNSIRYFPSLAHLTNLKLVIYDHNPCRNAPKVGKGVRRVGRWAEETPEPDRRKTRRSALAKEENQEPPPLLPPSS	failed
MRRGLVIVGHGSQLNHYREVMELHRKRIEESGAFDEVKIAFAARKRRPMPDEAIREMNCDIIYVVPLFISYGLHVTEDLPDLLGFPRGRGIKEGEFEGKKVVICEPIGEDYFVTYAILNSVFRIGRDGKGEE	not failed
TKDWKFTVSMNTAYNKNKIISLPYNGLPNNMQDAYQVYTGRKLADGTYERQWVGGYQEGQEYGVIYAFKSLGIYKSESEIPGNLIDRSTYTENGADAKVLYGPEAWAKLSDAEKEKGLPIQAGDVKWQDVNGDGVIDDYDRVKLGNTIPHWTGGFNINTSWKGLTLNCRLDYALGYWVHDWKTPWIMGNMQGTFNTISLVKDSWSESNPNGKYPVYGWADFLGKRNYDRISDINCYRGDYLAFREISLSYSLPQSWIHKSGLSKVDVSVTAQNLGYITAAKNMATPEYGVSQNGGYPLPRTVVLGLNVTF	failed
MENLGDRLEVVAELSLAPGNITLTPDGRLFLSLHQFYQPEMQVAELTQDGLIPFPPQSGNAIITFDTVLGIKSDGNGIVWMLDNGNQSKSVPKLVAWDTLNNQLSRVIYLPPPITLSNSFVNDLAVDLIHNFVYISDPAPDDKAALIRVDLQTGLAARVLQGYPGIAPEDIDLVIDGVPVQIGQPDGTVIRPHLGVNGIVLDAENEWLYLSPMHSTSMYRIKSADLSNLQLTDAELGSKIERYSEKPICDGISIDKDHNIYVGDLAHSAIGVITSADRAYKLLVTDEKLSWTDSFNFGSDGYLYFDCNQLHHSAPLNAGENISAPPYYIFRLKPLAAGIVGR	not failed
MRWNICVVGAGKIGQMIAALLKTSSNYSVTVADHDLAALAVLNRMGVATKQVDAKDEAGLAKALGGFDAVISAAPFFLTPIIAKAAKAAGAHYFDLTEDVAATNAVRALAEDSQTAFMPQCGLAPGFVGIAGAALAAEFDEIDSLHMRVGALPLYPTNALKYNLTWSTDG	failed
MESFHPLSLLKPSIRGWCIRGRVVRTFLVSLVPSSKVMGLILAEEHGMTIEATVGYKMSDHYKDFINEGEWVTITNFGVVENSGSVRATTHSFKIGFFVDIVVRLTSPLPAIPHYRLASFSSIIDDEIDKSVLVDLVGAIYDVGELINTRPKQNNVDDLTLIFKISDNENRVLECLATKKEALDFDHNYRRYGGGVIVAVLGWWKIDRYFDGPKNVRVCTAGTISTVFPDPDIPESNEIHEI	failed
MLGAVARGGWVYEVHAAGAGTDLYRVSLLEGYQEQRPLSAAESAALPALLPLVHAESALSEMGYFHGVMGSTADTALAYDRFVGHTRWFGGEDGTRLLNRIRTRLQRPGPVRFWNGSSPPTGEDRRAALVP	failed
MPAPLRFSSDKPLLLLIDMQQAVDDPSWGPRNHPQAEQACAGLLQAWRARGLPLIHIRHDSVEPNSTYRPGQPGHAFKPEVEPRPGETVIAKQTNSAFIGTGLEALLRANGWLELVVAGVSTSNSVEATVRMAGNLGFAVCLAEDGCFTFDKTDWHGRRRSADEVHAMSLANLDGEYCRVCGSADILAALGNIAGAA	not failed
MLASLEARYPGLAFAWPRPGVLEITFRGEKLXAMPPALHRGLARVWRDLEAVEGVRAVLLRGEGGVFSAGGSFGLIEEMRASHEALLRVFWEARDLVLGPLXFPRPVVAAVEKVAVGAGLALALAADIAVVGKGTRLLDGHLRLGVAAGDHAVLLWPLLVGMAKAKYHLLLXEPLTGEEAERLGLVALAVEDEKVYEKALEVAERLAQGPKEALHHTKHALXHWYRSFLPHFELSLALEFLGFSGKELEEGLKALKEKRPPEFP	not failed
IKHWVFDMDGTLTIAVHDFAAIREALSIPAEDDILTHLAALPADESAAKHAWLLEHERDLAQGSRPAPGAVELVRELAGRGYRLGILTRNARELAHVTLEAIGLADCFAEADVLGRDEAPPKPHPGGLLKLAEAWDVSPSRMVMVGDYRFDLDCGRAAGTRTVLVNLPDNPWPELTDWHARDCAQLRDLLSA	failed
GGLRLIPLDQVRYLQADEKYVVICHEQGEDLIEESLKSLEKEFSDRFVRIHRNCLIARAELTELRRCSDGQVQAVLRNVVTPLAVSRRCVPLLCDQLR	not failed
MGTKVSDMQKNVTPGRRKGCPNYPPEFKQQLVAASCEPGISISKLALENGINANLLFKWRQQWREGKLLLPSSESPQLLPVTLDAAAEQPESLAEDPETLSISCEVTFRHGTLRFNGNVSEKLLTLLIQELKR	failed
AVDLNKENRDPKYVESIVNRSQKIVDKLGLTDAKVAEDVCNVIANRYFELNDIYEIRDAKVKAVKESGLTGDAKNEALKAAENEKDAALYRSHFAFPASLSLFLNEEQIEAVKDGMTYGVVKVTYEATLDMIPSLKEEEKVQIYAWLVEAREFAMDAENSNKKHAAFGKYKGRINNYLAKRGYNLTKEREEWAKRVKARGGTL	not failed
